In patent US20220251562, “Anti-CD3 Aptamers for Use in Cell Targeting and Labeling” (Ixaka France, published 2022) one finds binding result and Kd data, which are given here for six molecules.

The target of series [1] is T1, IgG1 Fc (counter target) (Homo sapiens, UniProt P01857-1 P01857-1:100-330). The experiment in a line: SPR; no interaction observed. To be noted: tags: AcroBiosystems; chain copies: 2; label: 5'-biotin-TEG. On the procedure: (§1) Binding affinity measurements with the most interesting anti-CD3 aptamers derived from the core sequence were performed using a BIAcore T200 instrument (GE Healthcare) as already described in Example 4. To analyze interactions between aptamers and CD3 proteins, biotinylated aptamers were immobilized at a lower density than in Example 4 (100-500 RU) on Series S Sensor chips SA (GE Healthcare) according to manufacturer's instructions (GE Healthcare). Mouse and Cynomolgus CD3 ε/δ were purchased from AcroBiosystems. For human proteins, the highest concentration used was 100 nM and 1 μM for mouse and cynomolgus antigens. Other concentrations were obtained by 3-fold dilutions.
(§2) Table 8 below provides a summary of KD values obtained from surface plasmon resonance measurements. […] Variants of the core sequence identified in cell binding assays (CELTIC_core_12, CELTIC_core_24, CELTIC_core_29, CELTIC_core_40 and CELTIC_core_42) were all confirmed to have better affinities than the unmodified aptamer with human CD3 ε/γ. As already observed in Example 4, the affinities were in general slightly lower with CD3 ε/δ which is a consequence of the SELEX strategy that included more rounds on the CD3 ε/γ isoform. None of these sequences did bind to the Fc region of human IgG1.
(Surface plasmon resonance follows binding to a sensor surface in real time, without labels.)

In series [2] the target is T2, CD3 epsilon/gamma heterodimer (Homo sapiens, UniProt P07766;P09693 P07766:23-126,P09693:23-116). Put plainly: SPR; steady state; kinetic fits 5 nM (Table 3), 5.2 nM (Table 6), 119 pM (Table 8), 156 nM steady state (Table 9); SELEX buffer Mg Ca. To be noted: tags: C-terminal human IgG1 Fc fusion, AcroBiosystems; chain copies: heterodimer 1:1 (inferred); label: 5'-biotin-TEG. On the procedure:
(§3) Binding affinity measurements were performed using a BIAcore T200 instrument (GE Healthcare). To analyze interactions between aptamers and CD3 proteins, 1000 Resonance Units of biotinylated aptamers were immobilized on Series S Sensor chips SA (GE Healthcare) according to manufacturer's instructions (GE Healthcare). SELEX buffer was used as the running buffer. The interactions were measured in the “Single Kinetics Cycle” mode at a flow rate of 30 μl/min and by injecting different concentrations of human CD3 ε/γ, CD3 ε/δ, IgG1 Fc and mouse CD3 ε/δ (Sino Biological). The highest protein concentration used was 100 nM. Other concentrations were obtained by 3-fold dilution. All kinetic data of the interaction were evaluated using the BIAcore T200 evaluation software. Table 3 below provides a summary of KD values obtained from surface plasmon resonance measurements.

Series [3] deals with T3, CD3 epsilon/delta heterodimer (Homo sapiens, UniProt P07766;P04234 P07766:23-126,P04234:22-105). Put plainly: SPR; steady state; kinetic 3.7 nM (Table 3), 9.9 nM (Table 6), 217 pM (Table 8). The following applies: tags: C-terminal human IgG1 Fc fusion, AcroBiosystems; chain copies: heterodimer 1:1 (inferred); label: 5'-biotin-TEG. On the procedure: as §3
Series [4] has as its target T1, IgG1 Fc (counter target). Put plainly: SPR; NA, no interaction; Table 3 prints 56.3 mM. The following applies: tags: AcroBiosystems; chain copies: 2; label: 5'-biotin-TEG. The procedure:
as §3

The target in series [5] is T3, CD3 epsilon/delta heterodimer. Put plainly: SPR; NA, DPBS. To be noted: tags: C-terminal human IgG1 Fc fusion, AcroBiosystems; chain copies: heterodimer 1:1 (inferred); label: 5'-biotin-TEG. The procedure: as §3
(§4) Binding of anti-CD3 RNA aptamers to each of purified recombinant human CD3 ε/γ and CD3 ε/δ proteins was measured using surface plasmon resonance. Binding studies were performed generally as described in Example 5 except that SELEX buffer was replaced by DPBS. The highest protein concentration used was 300 nM. Other concentrations were obtained by 3-fold dilution. Binding to hIgG1 Fc was used as control. Binding to murine CD3 do (mCD3 c/S) was also measured.

For series [6], the target named is T1, IgG1 Fc (counter target). Put plainly: SPR; NA, DPBS. To be noted: tags: AcroBiosystems; chain copies: 2; label: 5'-biotin-TEG. On the procedure:
as §3, §4

Series [7] has as its target T2, CD3 epsilon/gamma heterodimer. The experiment in a line: SPR; kinetic, DPBS. The following applies: tags: C-terminal human IgG1 Fc fusion, AcroBiosystems; chain copies: heterodimer 1:1 (inferred); label: 5'-biotin-TEG. On the procedure:
as §3, §4

Series [8] deals with T3, CD3 epsilon/delta heterodimer. Put plainly: SPR; kinetic. To be noted: tags: C-terminal human IgG1 Fc fusion, AcroBiosystems; chain copies: heterodimer 1:1 (inferred); label: biotin; G4 predicted. On the procedure:
as §1, §2

The target of series [9] is T2, CD3 epsilon/gamma heterodimer. The experiment in a line: SPR; steady state; kinetic 104 pM (Table 8). To be noted: tags: C-terminal human IgG1 Fc fusion, AcroBiosystems; chain copies: heterodimer 1:1 (inferred); label: biotin; G4 predicted. On the procedure: as §1
Table 9 below provides a summary of KD values obtained from surface plasmon resonance measurements performed with human CD3 ε/γ and mouse and cynomolgus CD3 ε/δ. […] In these conditions, 3′-3′ deoxy-thymidine-modified versions of the latest four aptamers performed equally well. All these sequenced-optimized aptamers were able to bind the murine and cynomolgus CD3 ε/δ isoforms confirming the cross-specificity of the CD3 aptamers already observed in Examples 3 and 5.

Series [10] has as its target T3, CD3 epsilon/delta heterodimer. Put plainly: SPR; steady state; kinetic 3.2 uM (Table 6). The following applies: tags: C-terminal human IgG1 Fc fusion, AcroBiosystems; chain copies: heterodimer 1:1 (inferred); label: 5'-biotin-TEG. The procedure: as §3
In series [11] the target is T2, CD3 epsilon/gamma heterodimer. Put plainly: SPR; steady state; kinetic 65.2 nM (Table 6). The following applies: tags: C-terminal human IgG1 Fc fusion, AcroBiosystems; chain copies: heterodimer 1:1 (inferred); label: 5'-biotin-TEG. On the procedure:
as §3

Series [12] addresses T1, IgG1 Fc (counter target). The experiment in a line: SPR; no interaction observed. To be noted: tags: AcroBiosystems; chain copies: 2; label: 5'-biotin-TEG. On the procedure:
as §3
The source holds these as a separate data set.

The target of series [13] is T1, IgG1 Fc (counter target). Put plainly: SPR; no interaction observed; printed CELTIC_CD3_22. To be noted: tags: AcroBiosystems; chain copies: 2; label: 5'-biotin-TEG. The procedure: as §3

T3 sequence (P07766 23-126, stated change not applied, chain 1 of 2): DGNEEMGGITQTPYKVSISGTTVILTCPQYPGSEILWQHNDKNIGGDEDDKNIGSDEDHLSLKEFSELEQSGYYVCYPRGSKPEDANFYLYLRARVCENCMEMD
T3 sequence (P04234 22-105, stated change not applied, chain 2 of 2): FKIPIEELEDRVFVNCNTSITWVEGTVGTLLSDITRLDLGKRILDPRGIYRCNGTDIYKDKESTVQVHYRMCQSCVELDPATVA
T2 sequence (P07766 23-126, chain 1 of 2): as the sequence (P07766 23-126, stated change not applied, chain 1 of 2) above
T2 sequence (P09693 23-116, chain 2 of 2): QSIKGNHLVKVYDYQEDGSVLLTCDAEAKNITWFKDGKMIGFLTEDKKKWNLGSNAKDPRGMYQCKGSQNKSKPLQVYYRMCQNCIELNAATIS

Regarding GGGTTTGGCATCGGGTCTGGC (ssDNA, 5'-HEG, 3'-3' dT), the binding result with IgG1 Fc (counter target) [1] is listed as “no binding”.

As for TTTCCGGGTGGGGGTTTGGCACCGGGCCTGGCGCAGGGATTCG (ssDNA) [CELTIC_1s], the dissociation constant Kd (usually the concentration at which binding is half-saturated) in [2] turned out to be 53 nM; in [3], 125 nM. For the same molecule, the binding result in the series with IgG1 Fc (counter target) [4] is “no binding”.

In the case of GAUGAUAUCUUUAAUAUCAAUUGCAGCGAUUCUUGUUUGAGAAUAAAC (ssRNA, 2'-F pyrimidines) [ARACD3-3130001], the binding result (in [5]; in the series with IgG1 Fc (counter target) [6]) was “no binding” throughout. In series [7], binding was characterised by a dissociation constant (Kd) of 332 nM.

Regarding GGGTTTGGCATCGGGTCTGGC (ssDNA, 5'-HEG; 3'-3' dT), the results for the Kd in series [8] and in series [9] were 0.01 nM and 156 nM, respectively.

Turning to GAGGGGTTTGGCATCGGGCCTGGCGCCATTCAAGCTATGC (ssDNA) [CELTIC_2s], the results for the dissociation constant (Kd) in series [10] and in [11] were 260 nM and 627 nM, respectively. Moreover, the binding result in the series with IgG1 Fc (counter target) [12] is given as “no binding”.

For CGACCACAGGGGTTTGGCTTCGGGACTGGCGGTGGGCACT (ssDNA) [CELTIC_22s], in the series with IgG1 Fc (counter target) [13], the binding result is on record as “no binding”.
